{"source": "paper PMC3097263", "target": "T1, MqsA N97A/R101A N97A;R101A (Escherichia coli K-12?) (UniProt Q46864)", "T1 sequence": "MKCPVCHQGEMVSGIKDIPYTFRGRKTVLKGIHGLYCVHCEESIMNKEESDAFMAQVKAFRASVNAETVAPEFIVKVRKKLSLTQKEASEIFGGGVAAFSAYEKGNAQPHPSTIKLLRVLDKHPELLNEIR", "assay": "EMSA", "details": "20 min at room temperature, binding buffer"}
{"sequence": "TGAACGTTGGTCAGACCTTGCAGGTGGGTAATGCTTCCGGTACGCCAATCACTGGCGGAAATGCCATTACCCAGGCCGACGCAGCAGAGCAAGGAGTTGTGATCAAGCCTGCACAAAATTCCACCGTTGCTGTTGCGTCGCAACCGACAATTACGTATTCTGAGTCTTCGGGTGAACAGAGTGCT (double strand) [PrpoS (Suppl. Fig. 3b probe)]", "values": [{"measurement": "binding", "value": "no binding"}]}
